Assay results taken from article PMC3642240, “Cloning, Expression and Characterization of 3-Hydroxyisobutyrate Dehydrogenase from Pseudomonas denitrificans ATCC 13867” (PLoS ONE, 2013).

Assays:
Experiment in all cases: purified protein
purified protein [1] = substrate: CC(N)(CO)C(=O)O; conditions: 2 mM NAD+, 100 mM Tris-HCl pH 9.0, 30 °C
purified protein [2] = substrate: NC(=O)c1ccc[n+]([C@@H]2O[C@H](COP(=O)(O)OP(=O)(O)OC[C@H]3O[C@@H](n4cnc5c(N)ncnc54)[C@H](O)[C@@H]3O)[C@@H](O)[C@H]2O)c1; conditions: 3 mM 3-hydroxypropionate, NAD+ 0.025-4 mM, 100 mM Tris-HCl pH 9.0, 30 °C, varied: cofactor
purified protein [3] = substrate: O=C(O)CCO; conditions: 2 mM NAD+, 100 mM Tris-HCl pH 9.0, 30 °C
purified protein [4] = substrate: C[C@@H](CO)C(=O)O; conditions: 2 mM NAD+, 100 mM Tris-HCl pH 9.0, 30 °C
purified protein [5] = substrate: COC(=O)[C@@H](C)CO; conditions: 2 mM NAD+, 100 mM Tris-HCl pH 9.0, 30 °C

B1: 3HIBDH-IV (Pseudomonas sp. ATCC 13867) (protein)
chain: MRIGFIGLGNMGGPMAANLLKAGFDLSVFDLSAKAVAAAVALGARALASPAEVARDDVEVIITMLPAAAHVKQVFLGEDGLLANVQPGVLLIDSSTIDPLNAREVSAAALAHGNPMLDAPVSGGTAGAAAGTLTFMVGGEPADFERARPALAAMGKNIVHCGGTGNGQVAKVANNLLLGISMIGVAEAMSLGVKLGMDADVLAGIINTSSGRCWSSEVNNPLTGAPAARGYSGGFGTDLMLKDLGLASEAARQVRQPVLLGALAQQLFQTFSNQGNGQLDFSAIVKLYEQG
With B1 the Km (purified protein [1]) was 24.180 ± 3.169 mM, the Vmax (purified protein [1]) was 12.4 µmol/min/mg and the kcat (purified protein [1]) was 6.62 ± 0.475 s⁻¹. For the same protein, the kcat/Km (purified protein [1]) was 275 ± 16 M⁻¹ s⁻¹, the Km (purified protein [2]) was 0.164 ± 0.037 mM and the Vmax (purified protein [2]) was 12.6 µmol/min/mg. It also gave a kcat (purified protein [2]) of 6.72 ± 0.126 s⁻¹, a kcat/Km (purified protein [2]) of 42400 ± 10900 M⁻¹ s⁻¹ and a Km (purified protein [3]) of 1.055 ± 0.035 mM. The Vmax (purified protein [3]) was 20.2 µmol/min/mg, the kcat (purified protein [3]) was 10.8 ± 0.945 s⁻¹ and the kcat/Km (purified protein [3]) was 10200 ± 699 M⁻¹ s⁻¹. It also gave a Km (purified protein [4]) of 0.178 ± 0.010 mM, a Vmax (purified protein [4]) of 151 µmol/min/mg and a kcat (purified protein [4]) of 80.8 ± 1.1 s⁻¹. The kcat/Km (purified protein [4]) was 455000 ± 33000 M⁻¹ s⁻¹, the Km (purified protein [5]) was 25.142 ± 1.667 mM and the Vmax (purified protein [5]) was 67 µmol/min/mg. It also gave a kcat (purified protein [5]) of 35.8 ± 3.3 s⁻¹ and a kcat/Km (purified protein [5]) of 1430 ± 231 M⁻¹ s⁻¹.
